# According to the supplement of paper PMC9170038:
# Tested on: MS2 coat protein
# Assay: apparent KD of MS2 coat protein; designed switch direction (-1 OFF switch, 1 ON switch): -1; higher = weaker reporter binding
# How it was run: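 Each step of the titration lasted 0.8–1.5 h at the lowest concentration and 10–20 min at the highest. The protein, SNAP-549-labelled MS2 coat protein, went from 0.7 or 1.5 nM doubling to 3 µM over RNA switches transcribed on Illumina chips by stalled E. coli RNA polymerase. Normalised cluster fluorescence was curve-fitted, and the per-design median over clusters is given as apparent KD.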
# [1] = Eterna round: R95, input ligand: microRNA oligo, concentration not stated
# [2] = input ligand: microRNA oligo, concentration not stated
# [3] = Eterna round: R95, input ligand: FMN 200 uM
# [4] = Eterna round: R95, input ligand: none
Sequence,apparent KD of MS2 coat protein [1] [nM],apparent KD of MS2 coat protein (input ligand: FMN 200 uM) [nM],apparent KD of MS2 coat protein (input ligand: none) [nM],apparent KD of MS2 coat protein [2] [nM],apparent KD of MS2 coat protein [3] [nM],apparent KD of MS2 coat protein [4] [nM]
AAUUCACAUGAGGAUCACCCAUGUCAGGAUAUGGUUACGCGGGUUUCGGUGCGUGUGGCCAGAAGGGACAGCUA (puzzle: Exclusion 1),54.6,,,,,
"UGCAGACGAGGAUAUAGAUUUGAUAACAUGAGGAUCACCCAUGUGAUCGAUAGAUCAGAUUUAGAAGGCGUCUGCU [E5/8-A4] (Eterna round: R97, puzzle: Exclusion 5)",,586,715,,,
"GACUUGUCAGGAUAUCUUACAUAAACAUCGUAGUUACAAUUGGAGAAGGGACAUGAGGAUCACCCAUGUUUGCC [tap-tap-tappy30] (Eterna round: R97, puzzle: Exclusion 4)",,16.8,17.5,,,
"AUGAGUUGAGGAUAUACGUGAGGCGUUAACGCCGCCAGUCAACAUGAGGAUCACCCAUGUAGAAGGCAACCGUC [Eternabot (L1) Solution 6] (Eterna round: R97, puzzle: Exclusion 2)",,22.1,19.7,,,
"GCCUCACUUGAGGAUCACCCAAGUCAGGAUAUAUCACUAGCGUGGAAACCACGCUGGCAUAGAAGGGACAAAGA [Ergeeddi] (Eterna round: R97, puzzle: Exclusion 1)",,27.1,17.3,,,
"GUUUUCAGACGGAGAUCCUACAUGAGGAUCACCCAUGUCUCUCUUGCUAAUUGCUCGUCUUUUUCUCCUCUGUUCUC [Elimod 36 - Jieux - Sensor, turn-off variant 1] (Eterna round: R97, puzzle: Sensor, turn-off variant 1)",,81.2,95.8,,,
"AGAUGCUUAAGUCGACAUGAGGAUCACCCAUGUACAGUUAACGAGGAUAUCCGAAAUAAAUAAUAGGAGAAGGCGUGAUCAUGA [Ex NG3 #1] (Eterna round: R96, puzzle: Exclusion NG 3)",,82.4,307,145,,
"AGCCUAGCAGGAUAUGCUCGGGAUUACAUGAGGAUCACCCAUGUGACUGAUUGUUGUCUUGCAGAAGGGCUAGGGA [JL-EX5-4.04 ViennaUCT mod] (Eterna round: R97, puzzle: Exclusion 5)",,365,49,,,
"UUGUUCCGUGUAGGAUAUUGGCCUUCCUCGGGCCGAGAAGGACAUGAGGAUCACCCAUGUAUGCUAUUAUCGCGCGUGGCGCAC [Design 95] (Eterna round: R96, puzzle: Exclusion NG 1)",,279,39.9,22.4,,
"CAACGUGAGCAGGAUAUACAGAGGGAGACCUGGGUAGAAGGGCUCACAUGAGGAUCACCCAUGUUAGCCAAAGA [Eternabot (Original) Solution 47] (Eterna round: R97, puzzle: Exclusion 6)",,33.3,18.8,,,
"UUUCCUUGUGUGAGGAUAUACUUGUUUGUGUUUUUGUAGAAGGCACAUGAGGAUCACCCAUGUACUCUUUCCUG [JR_BME4_Sub023] (Eterna round: R96, puzzle: Brourd's mod of Exclusion 4)",,68.6,37.7,34.7,,
"CUUGCAUUGCGAGGAUAUCCAACGUGGCUCGUGCUUACAUGAGGAUCACCCAUGUUCUACUAAAAGGAGAAGGCGCUUGGAGGA [Endixexebe] (Eterna round: R96, puzzle: Exclusion NG 2)",,48.8,25.5,16.8,,
"UCUAGACAUGAGGAUCACCCAUGUGAGGAUAUGAUGCGAUCGUCGAAAGACGAUAGCAUCAGAAGGCACAAAUG [Fiskers Ex 1 - 12] (Eterna round: R96, puzzle: Exclusion 1)",,200,72.3,53.6,,
AAUAACAGAGGAUAUACUGUUUUAUGUGUUUGUUGUUUUAAACAUGAGGAUCACCCAUGUAGAAGGCUGAGUAA [JMF 34] (puzzle: Exclusion 2),21,,,,,
"AACAAGCAAGGAUAUACCGGAGGUGUGUCCUCACCUAAGGGACUUGAGGAUCACCCAAGUAGAAGGUGCAACAA [Raxela] (Eterna round: R97, puzzle: Exclusion 2)",,41.5,141,,,
"AGCUGUGGCCAAGGAUAUCCAACCUUAAAUACCGACGUAUAGUCGGACAUGAGGAUCACCCAUGUGGAGAAGGUGGUCUCAGCA [Eli eng2 - 042] (Eterna round: R96, puzzle: Exclusion NG 2)",,52.2,30.1,33.7,,
"CGAGCUUUUUGCUCGUCUUACAUGAGGAUCACCCAUGUCGAGCGAGCGAGCGAGCGAAAGUUUGUUUGUUUGUUUGA [Mod of sellena 3] (Eterna round: R97, puzzle: Sensor, turn-off variant 1)",,21.4,20.4,,,

Sequence,apparent KD of MS2 coat protein [1] [nM],apparent KD of MS2 coat protein (input ligand: FMN 200 uM) [nM],apparent KD of MS2 coat protein (input ligand: none) [nM],apparent KD of MS2 coat protein [2] [nM],apparent KD of MS2 coat protein [3] [nM],apparent KD of MS2 coat protein [4] [nM]
"GAAUAGUGAGGAUAUGCAAUGAAGGUAGUACGAUAUGUCUGACAUGAGGAUCACCCAUGUAGAAGGCACAGAUC [EX2 #12] (Eterna round: R97, puzzle: Exclusion 2)",,16.1,22,,,
"AGUAGGUCUACCUUGGUGGAUCUGCAUUAUGCAAGUGAUACAUGAGGAUCACCCAUGUCCUCAUUUGCUCGUCUUAU [JL turnoff v2 99.24] (puzzle: Sensor v3, turn-off variant 2)",242,,,,17.3,16.1
"GGGAAACAUGAGGAUCACCCAUGUAAUGAGCAUGGAAUCCCAGAGGAUAUCGCAUGUAUGAAUGUCGAGAAGGCUGACGUUAAA [Eternabot solution 6] (Eterna round: R96, puzzle: Exclusion NG 3)",,1030,207,198,,
"CAAUUGGGAGGAUAUACAUGAGGAUCACCCAUGUCGAUCCCAGGUAAGUUAAUACUUCGUAGAAGGCCUAUCUC [Eternabot (L2) Solution 16] (Eterna round: R97, puzzle: Exclusion 3)",,20.6,17.6,,,
AAUACACAUGAGGAUCACCCAUGUUAGGAUAUUAGCGGGCAGACAGACAGACAGACGAUGAGAAGGAACAGGAA [Excls1-VII] (puzzle: Exclusion 1),22.3,,,,23.3,27.7
AAGAAACAUGAGGAUCACCCAUGUGAGGAUAUGAAAAAGAAAAGAAAAGAAAGAAGGCUCAGAAGGCACAAAGG [salish99-ex1_r3_029] (puzzle: Exclusion 1),24.1,,,,30.5,28.6
"GUUGGGUGAUGAUACAUGAGGAUCACCCAUGUUAAAAGUCAUUAGGAUAUCCCGACGGCCGGUUAGGAGAAGGAGUGACCAGGC [Maonma] (Eterna round: R96, puzzle: Exclusion NG 3)",,636,429,285,,
CGUGCGUAUGUGAGGAUAUGCUGGUCCUUGGCUCGGCAGAAGGCACAUGAGGAUCACCCAUGUGGUGUCGUACU [salish99_Bmod_ex4_069] (puzzle: Brourd's mod of Exclusion 4),50.2,,,,,
"ACCUAAAAGCUAGGAUAUACAUGAGGAUCACCCAUGUACACAGGUAGACUAACCUGUGGACUCAUGUAGAAGGAGCAUGACAAA [Erongebe] (Eterna round: R96, puzzle: Exclusion NG 2)",,111,363,240,,
UUAUACGUUGAGGAUAUGCGACUUUUUUUAGUUGUAGAAGGCGAUACAUGAGGAUCACCCAUGUUUAUGGGCAU [LRO-Ex6-11] (puzzle: Exclusion 6),137,,,,,
"UCGGCGCGAGGAUAUACGUUUGCUUUUUUGGGUCGUUGCGUACAUGAGGAUCACCCAUGUAGAAGGCGCGCCGC [Apr-15 SS2-25] (Eterna round: R96, puzzle: Exclusion 2)",,145,31.8,25.9,,
GCGUCGAGUGUGAGGAUAUGCUGGUCCUUGGAUCAGCAGAAGGCACAUGAGGAUCACCCAUGUGAAUACGAUGC [JL bmx4 3.14] (puzzle: Brourd's mod of Exclusion 4),21.2,,,,,
"CUGAACAUAGGAUAUACAUGAGGAUCACCCAUGUAUAUAAAAGGGUGUUCCAACUAAAGUAGAAGGAUGUAUAG [ExFusion 4 - Jieux - Exclusion 3] (Eterna round: R97, puzzle: Exclusion 3)",,45.1,57.8,,,
"UAUAUGUUAGGAUAUUAGUAGUAAAUGAAUAAAAUUAUUACUGAGAAGGGACAUGAGGAUCACCCAUGUACCUC [Mat - Exclusion 4 - Eli Mod - D30] (Eterna round: R97, puzzle: Exclusion 4)",,19.3,15.9,,,
UAAAAGUCAGGAUAUGCGAGAGAUUGAAGUGUGGCAAGGUAGCAGAAGGGACAUGAGGAUCACCCAUGUGUGGC [JR_Exclu4_Sub096] (puzzle: Exclusion 4),49,,,,,
"CCUCUGUGAGGAUAUGGGCCCGGGCCCGUGAGGGCCCGGGCCCAGAAGGCACAUGAGGAUCACCCAUGUGGCUU [Energy optimization 2] (Eterna round: R97, puzzle: Exclusion 4)",,94.4,20,,,
"CGGGCCGGCCUUCCGGCCGGCCCGACAUGAGGAUCACCCAUGUAGGAUAUCCCGGCUGCCGGCCGGGAGAAGGGCGUGCGUCCC [-49.5, -48.5 kcal, 14% A] (Eterna round: R96, puzzle: Exclusion NG 3)",,39.8,33.5,27.6,,
